Here are results for twelve molecules from patent US9611285B2, “Fucosyltransferases and their applications” (Jennewein Biotechnologie GmbH, priority 2011, dated 2017).

Series [1] relates to alpha-1,2-fucosyltransferase His6-Propeptide-WbgL. The series can be described thus: Acceptor substrate spectrum by HPAEC-PAD activity assay. The format is biochemical, Escherichia coli O126. The settings on record: acceptor substrate instead of 5 mM lactose; 2 mM GDP-β-L-fucose; relative to lactose. On the procedure: (§1) Enzyme activity was also determined by HPAEC-PAD analysis for detection of 2′-fucosyllactose. The assay solution contained 2 mM GDP-β-L-fucose, 5 mM lactose, 50 mM Tris-HCl pH 7.6 with 2 mM MnCl2, 1 mM DTT, 1 U alkaline phosphatase in a total volume of 175 μl and was incubated at 30° C. after the addition of […] and purified enzyme solution. The reaction was stopped by heating for 5 min at 95° C. at different time points where the conversion rate was linear. The centrifuged samples were analysed by Dionex HPAEC-PAD (Dionex Corporation, Sunnyvale, Calif., USA) on CarboPac PA1 column using Chromeleon™ 6.40 Software. The elution was carried out with 50 mM NaOH at 30° C. (flow rate 1 mL/min, 50 μL injection volume). The concentration of the generated trisaccharide 2′-fucosyllactose was determined by a standard calibration curve with commercially available 2′-fucosyllactose and used for subsequent calculation of enzyme activity (see FIG. 6).
(§2) For both, HPAEC-PAD and photometric assays, 1 U of His6-Propeptide-WbgL is the amount of enzyme which produces 1 μmol product (GDP or 2′-fucosyllactose) per minute under standard assay conditions.
The substrate spectrum of recombinant His6-Propeptide-WbgL was analysed by HPAEC-PAD according to activity assay described above. Instead of 5 mM lactose different acceptor substrates were tested to determine the relative activity compared to lactose.

Series [2] concerns OC[C@H]1O[C@@H](O[C@H]2[C@H](O)[C@@H](O)C(O)O[C@@H]2CO)[C@H](O)[C@@H](O)[C@H]1O. The series can be described thus: Kinetic analysis by photometric pyruvate kinase/lactate dehydrogenase assay (initial rates, Michaelis-Menten). The format is biochemical, Escherichia coli O126. The settings on record: other: lactose varied 0.05 to 40 mM at 2 mM GDP-beta-L-fucose, GDP-beta-L-fucose varied 0.02 to 4 mM at 10 mM lactose, 30° C., pH 7.6. On the procedure:
(§3) The photometric assay was performed using the pyruvate kinase/lactate dehydrogenase system for the detection of released GDP (Barratt, D. H., L. Barber, et al. (2001). “Multiple, distinct isoforms of sucrose synthase in pea.” Plant Physiology 127(2): 655-664.). The reaction mixture for the microtiter plate assay contained 50 mM Tris-HCl pH 7.6, 2 mM GDP-beta-L-fucose, 5 mM Lactose, 1 mM phosphoenolpyruvate, 1 mM DTT, 0.25 mM NADH, 2 mM MnCl2, 5 U pyruvate kinase, and 5 U lactate dehydrogenase in a total volume of 250 μl. The reaction was started by addition of 100 μl enzyme solution and followed at 340 nm at 30° C. Control experiments for the detection of side activities were done without acceptor substrate lactose (see FIG. 5).
as §2
(§4) The kinetic constants of His6-Propeptide-WbgL for the acceptor substrate lactose and the donor substrate GDP-beta-L-fucose were derived from initial rate analysis at a variable substrate concentrations using the photometric assay described above. GDP-beta-L-fucose was varied from 0.02 mM to 4 mM at a constant concentration of 10 mM lactose and lactose was altered from 0.05 to 40 mM at a constant concentration of 2 mM GDP-beta-L-fucose. All data were determined by non linear-regression analysis according to the Michaelis-Menten equation using the Sigma Plot 10 software (SPSS Science Software GmbH, Erkrath, Germany).

The test system of series [3] is C[C@@H]1O[C@H](OP(=O)(O)OP(=O)(O)OC[C@H]2O[C@@H](n3cnc4c(=O)[nH]c(N)nc43)[C@H](O)[C@@H]2O)[C@@H](O)[C@H](O)[C@@H]1O. The description is as above. The format is biochemical, Escherichia coli O126. The settings on record: other: lactose varied 0.05 to 40 mM at 2 mM GDP-beta-L-fucose, GDP-beta-L-fucose varied 0.02 to 4 mM at 10 mM lactose, 30° C., pH 7.6. On the procedure: as §3, §2, §4

For series [4], the system named is E. coli BL21(DE3) ΔlacZ pDEST14-fkp pCOLA-lacY-fucP. The series can be described thus: Production of 2'-fucosyllactose in recombinant E. coli expressing a fucosyltransferase (HPLC). The format is cell-based, Escherichia coli. As to the method: Cells E. coli BL21(DE3) ΔlacZ pDEST14-fkp pCOLA-lacY-fucP were transformed with pACYCDuet-1 carrying the appropriate fucosyltransferase gene. Colonies were grown on 2YT plates with the appropriate antibiotics. 5 ml over night cultures (2YT with antibiotics) were grown of each strain and from this cultures 15 ml mineral medium each were inoculated to 1%. Cells were grown using glycerol as carbon source and at OD600=0.5 were induced with 0.1 mM IPTG and 40 mM lactose and 30 mM fucose were added. Cultures were incubated at 30° C. and 120 rpm. Production of 2′-fucosyllactose was monitored HPLC analysis. The comparison of the amount of 2′-fucosyllactose (2′-FL) produced by expression of FucT2 from Helicobacter pylori compared to the expression of WbgL from Escherichia coli O126 is shown in the following table 1: […]

The nature of series [5]: pH optimum and metal ion dependency of the enzyme (HPAEC-PAD assay). The format is biochemical. As to the method: as §1
To study the optimal pH value for the activity of recombinant His6-Propeptide-WbgL, assays were performed at different pH values of a 50 mM Tris-HCl buffer ranging from pH 6.8 to 8.4. Optimal pH value was 7.6 (see. FIG. 8). Addition of metal ions Mn^2+ to standard assays allowed to investigate the metal ion dependency. All samples were analyzed HAPAEC-PAD as described above.

Turning to `CC(=O)N[C@@H]1[C@@H](O[C@@H]2O[C@H](CO)[C@H](O)[C@H](O)[C@H]2O)[C@H](O)[C@@H](CO)O[C@@H]1O` [LacNAc Typ I], the Relative activity in series [1] is 28%.

As to `CC(=O)NC1C(O)OC(CO)C(OC2OC(CO)C(O)C(O)C2NC(C)=O)C1O` (stereo not shown) [LacDiNAc], the Relative activity in series [1] came out at 0%.

With `OC[C@H]1O[C@@H](O[C@H]2[C@H](O)[C@@H](O)C(O)O[C@@H]2CO)[C@H](O)[C@@H](O)[C@H]1O` (stereo partly shown) [Lactose], in series [1], the Relative activity turned out to be 100%.

With `OC[C@H]1O[C@@H](O[C@@H]2[C@@H](CO)OC(O)(CO)[C@H]2O)[C@H](O)[C@@H](O)[C@H]1O` (mixture of isomers) [Lactulose], in series [1], the Relative activity worked out at 124%.

For `N[C@H]1C(O)O[C@H](CO)[C@H](O)[C@@H]1O` (stereo partly drawn) [D-GalNH2], in series [1], the Relative activity was 0%.

For the molecule `CC(=O)N[C@H]1C(O)O[C@H](CO)[C@@H](O[C@@H]2O[C@H](CO)[C@H](O)[C@H](O)[C@H]2O)[C@@H]1O` (stereo partly shown) [LacNAc Typ II], the Relative activity in series [1] is recorded as 95%.

Turning to “recombinant alpha-1,2-fucosyltransferase His6-Propeptide-WbgL (Escherichia coli)”, in series [2], the Km (in general, the concentration of substrate that gives half-maximal velocity) is given as 5.3 mM; the Vmax (commonly the top rate of the reaction or transport when substrate is in excess) was determined as 0.17 µmol/min/mg; the Vmax/Km stood at 32 µL/min/mg. In series [3], the Km is on record as 0.27 mM, the Vmax turned out to be 0.167 µmol/min/mg and the Vmax/Km is 618 µL/min/mg.

As for `CC(=O)N[C@H]1C(O)O[C@H](CO)[C@H](O)[C@@H]1O` (stereo partly drawn) [D-GalNAc], the Relative activity in series [1] stood at 0%.

For the molecule `OC[C@H]1O[C@@H](O[C@H]2[C@H](O)[C@@H](O)[C@H](OCc3ccccc3)O[C@@H]2CO)[C@H](O)[C@@H](O)[C@H]1O` [β-Benzyl-Lactose], in series [1], the Relative activity is listed as 50%.

For the molecule `O=C[C@H](O)[C@@H](O)[C@@H](O)[C@H](O)CO` [D-Galactose], the Relative activity in series [1] worked out at 71%.

B1: WbgL: alpha-1,2-fucosyltransferase WbgL from E. coli O126 (SEQ ID No. 2), expressed from pACYC-wbgL (protein, listed as Escherichia coli)
chain: MSIIRLQGGLGNQLFQFSFGYALSKINGTPLYFDISHYAENDDHGGYRLNNLQIPEEYLQYYTPKINNIYKLLVRGSRLYPDIFLFLGFCNEFHAYGYDFEYIAQKWKSKKYIGYWQSEHFFHKHILDLKEFFIPKNVSEQANLLAAKILESQSSLSIHIRRGDYIKNKTATLTHGVCSLEYYKKALNKIRDLAMIRDVFIFSDDIFWCKENIETLLSKKYNIYYSEDLSQEEDLWLMSLANHHIIANSSFSWWGAYLGSSASQIVIYPTPWYDITPKNTYIPIVNHWINVDKHSSC
With B1, in series [4] (0.1 mM IPTG, 40 mM lactose, 30 mM fucose, 30° C., 120 rpm), the “Yield 2′-FL” value was 4.05 mM. In addition, the “Amount of fucosylated product 2′-fucosyllactose compared to FucT2 from Helicobacter pylori” value in series [4] (same cultures as Table 3) is given as “significantly higher”.

B2: His6-Propeptide-WbgL: recombinant WbgL with N-terminal His-Tag and S. hyicus lipase propeptide (513 amino acids), expressed from pETHIS6PropwbgL in E. coli (protein)
chain: NDSTTQTTTPLEVAQTSQQETHTHQTPVTSLHTATPEHVDDSKEATPLPEKAESPKTEVTVQPSSHTQEVPALHKKTQQQPAYKDKTVPESTIASKSVESNKATENEMSPVEHHASNVEKREDRLETNETTPPSVDREFSHKIINNTHVNPKTDGQTNVNVDTKTIDTVSPKDDRIDTAQPKQVDVPKENTTAQNKFTSQASDKKPTMSIIRLQGGLGNQLFQFSFGYALSKINGTPLYFDISHYAENDDHGGYRLNNLQIPEEYLQYYTPKINNIYKLLVRGSRLYPDIFLFLGFCNEFHAYGYDFEYIAQKWKSKKYIGYWQSEHFFHKHILDLKEFFIPKNVSEQANLLAAKILESQSSLSIHIRRGDYIKNKTATLTHGVCSLEYYKKALNKIRDLAMIRDVFIFSDDIFWCKENIETLLSKKYNIYYSEDLSQEEDLWLMSLANHHIIANSSFSWWGAYLGSSASQIVIYPTPWYDITPKNTYIPIVNHWINVDKHSSC
modifications: left off: small tags and cut ends
notes: recombinant WbgL with N-terminal His-Tag and S. hyicus lipase propeptide (513 amino acids), expressed from pETHIS6PropwbgL in E. coli
Regarding B2, in series [5] (50 mM Tris-HCl buffer, pH 6.8 to 8.4), the “Optimal pH value” worked out at 7.6. Besides, in series [5] (addition of Mn^2+ to standard assays), the “Metal ion dependency (Mn^2+)” value is reported as “not dependent on Mn^2+ ions”.
